In publication PMC10404610 (Biochemistry and Biophysics Reports, 2023):
No end group written: not given here.

Experiments:
CCL21 [1] = molecular target: CCL21 (UniProt O00585); test: NMR titration
CCL21 [2] = molecular target: T1, CCL21 (Homo sapiens, UniProt O00585); test: 2D 15N-1H HSQC NMR titration of [U-15N] CCL21 with PSGL1 1–15 peptide; assay type: binding
T1 sequence (O00585 24-134): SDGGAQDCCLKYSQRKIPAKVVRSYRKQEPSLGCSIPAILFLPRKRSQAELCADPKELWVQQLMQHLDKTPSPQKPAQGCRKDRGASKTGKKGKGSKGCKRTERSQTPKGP

Row | Substance | Kd (CCL21 [1]) | Kd (CCL21 [2])
1 | PSGL1 residues 1-15 peptide | 300 µM | –
2 | QTAEYEYLDYDFLPE [PSGL1 peptide] | – | 300 ± 100 µM
